Consider 4 molecules from publication PMC6449425, “Sterol Regulatory Element-Binding Protein (Sre1) Promotes the Synthesis of Carotenoids and Sterols in Xanthophyllomyces dendrorhous”.

Data set [1] deals with T1, Sre1 bHLH DNA-binding domain (UniProt A0A5B8KSW3 349-477).
T1 sequence: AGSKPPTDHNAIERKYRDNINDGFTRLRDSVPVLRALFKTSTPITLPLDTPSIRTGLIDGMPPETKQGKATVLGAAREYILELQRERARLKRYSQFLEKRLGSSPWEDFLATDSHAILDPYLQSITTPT
Nature of the data set: EMSA; 1.7 nM protein, 0.5 nM probe; single (fast) shifted band; 50 mM Hepes-KOH pH 7.5, 100 mM KCl, 5 mM MgCl2, 1 mM DTT, 20% glycerol, 0.8 mg/ml BSA, 0.3 mg/ml poly(dI-dC), 22°C 30 min; gel 0.5x TBE 4°C. The following applies: protein: recombinant; tags: His-tag (pET-TEV, TEV site); chain copies: 2; label: 3' biotin; blunt. Background: A gel shift assay detects complexes by their altered migration in electrophoresis.

Data set [2] addresses T1, Sre1 bHLH DNA-binding domain. Nature of the data set: EMSA; 1.7 nM protein, 0.5 nM probe; no shift; 50 mM Hepes-KOH pH 7.5, 100 mM KCl, 5 mM MgCl2, 1 mM DTT, 20% glycerol, 0.8 mg/ml BSA, 0.3 mg/ml poly(dI-dC), 22°C 30 min; gel 0.5x TBE 4°C. The settings on record: protein: recombinant; tags: His-tag (pET-TEV, TEV site); chain copies: 2; blunt.
Data set [3] shares this target. Nature of the data set: EMSA; 1.7 nM protein, 0.5 nM probe; two shifted bands; 50 mM Hepes-KOH pH 7.5, 100 mM KCl, 5 mM MgCl2, 1 mM DTT, 20% glycerol, 0.8 mg/ml BSA, 0.3 mg/ml poly(dI-dC), 22°C 30 min; gel 0.5x TBE 4°C. The settings on record: protein: recombinant; tags: His-tag (pET-TEV, TEV site); chain copies: 2; blunt.

B1: SRE1+SRE2* (probe C, by order) (dsDNA)
DNA 1: CCATCGTCACTCTCGTCTCCTGACCCGTTGGGGCTATAATTCATTTTACGTGACTCCACT
DNA 2: AGTGGAGTCACGTAAAATGAATTATAGCCCCAACGGGTCAGGAGACGAGAGTGACGATGG
As for B1, the binding result in data set [1] is “binds”.

B2: SRE1*+SRE2 (probe B, by order) (dsDNA)
DNA 1: CCATCGTCACTCTTTATTCTTTTTCCGTTGGGGCTATGTAACACCACACGTGACTCCACT
DNA 2: AGTGGAGTCACGTGTGGTGTTACATAGCCCCAACGGAAAAAGAATAAAGAGTGACGATGG
As for B2, the binding result in data set [1] is “binds”.

B3: probe D (SRE1*+SRE2*) (dsDNA)
DNA 1: CCATCGTCACTCTTTATTCTTTTTCCGTTGGGGCTATAATTCATTTTACGTGACTCCACT
DNA 2: AGTGGAGTCACGTAAAATGAATTATAGCCCCAACGGAAAAAGAATAAAGAGTGACGATGG
B3: in data set [2], the binding result is reported as “no binding”.

B4: probe A (HMGS SRE1+SRE2) (dsDNA)
DNA 1: CCATCGTCACTCTCGTCTCCTGACCCGTTGGGGCTATGTAACACCACACGTGACTCCACT
DNA 2: AGTGGAGTCACGTGTGGTGTTACATAGCCCCAACGGGTCAGGAGACGAGAGTGACGATGG
Take B4: the binding result in data set [3] was “binds”.
